# pKd: −log10 of the molar value. Read-outs that look alike come from different tables or passages of the source.
# Columns and labels:
# [1] = target: N-terminus of influenza B nucleoprotein (B/NP_(1-70)) (influenza B virus (strain B/Memphis/13/03)); experiment: ITC; MicroCal ITC200; 16 × 2.4 µL injections of 150 µM importin-α7 into 20 µM B/NP_TAIL; 20 mM Tris-HCl pH 7.5, 150 mM NaCl; 20 °C by the methods (25 °C by the legend of Figure 6); triplicate; single-binding site model
# [2] = target: importin-α1 (Mus musculus) (UniProt P52293); details: cited from earlier work
# [3] = target: importin-α1 (Mus musculus) (UniProt P52293); details: cited from earlier work; remark: listed apart in the source
# Chain of N-terminus of influenza B nucleoprotein (B/NP_(1-70)) (influenza B virus (strain B/Memphis/13/03)) (P04665 1-70): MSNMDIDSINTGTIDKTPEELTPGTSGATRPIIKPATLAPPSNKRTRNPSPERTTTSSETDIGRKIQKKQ
substance,measurement,setting,value
human importin-α7 (from UniProt O60684 1-536) (natural protein),pKd,[1],6.07
same,stoichiometry N,[1],1
influenza A nucleoprotein tail NTAIL (from UniProt Q289M3),pKd,[2],5.77
influenza A nucleoprotein NLS2 213-216 (from UniProt Q289M3),pKd,[3],4.15

# From PMC5719345
